{
  "source": "paper PMC4937444",
  "data": [
    {"system": "MukB (Escherichia coli)", "assay": "pull-down (MU topological loading assay)", "conditions": "no ATP, 750 mM KCl wash, MU assay: low salt 25 mM KCl loading (37 °C), His-tag affinity beads, typically 7.3 pmol MukB and 100 ng DNA, SSB EMSA: HKD buffer (25 mM …)", "values": [
      {"substance": "cccDNA (pUC19/pUC119)", "binding signal (% DNA retrieved)": 4.6},
      {"substance": "ldsDNA", "binding signal (% DNA retrieved)": 0.6},
      {"substance": "pUC119 cssDNA", "binding signal (% DNA retrieved)": 10.6}
    ]}
  ]
}
